From article PMC9536601 (2022)

T1: Ad5 hexon, on wild-type human adenovirus type 5 virions (human adenovirus type 5, UniProt P04133 2-952)
T1 chain: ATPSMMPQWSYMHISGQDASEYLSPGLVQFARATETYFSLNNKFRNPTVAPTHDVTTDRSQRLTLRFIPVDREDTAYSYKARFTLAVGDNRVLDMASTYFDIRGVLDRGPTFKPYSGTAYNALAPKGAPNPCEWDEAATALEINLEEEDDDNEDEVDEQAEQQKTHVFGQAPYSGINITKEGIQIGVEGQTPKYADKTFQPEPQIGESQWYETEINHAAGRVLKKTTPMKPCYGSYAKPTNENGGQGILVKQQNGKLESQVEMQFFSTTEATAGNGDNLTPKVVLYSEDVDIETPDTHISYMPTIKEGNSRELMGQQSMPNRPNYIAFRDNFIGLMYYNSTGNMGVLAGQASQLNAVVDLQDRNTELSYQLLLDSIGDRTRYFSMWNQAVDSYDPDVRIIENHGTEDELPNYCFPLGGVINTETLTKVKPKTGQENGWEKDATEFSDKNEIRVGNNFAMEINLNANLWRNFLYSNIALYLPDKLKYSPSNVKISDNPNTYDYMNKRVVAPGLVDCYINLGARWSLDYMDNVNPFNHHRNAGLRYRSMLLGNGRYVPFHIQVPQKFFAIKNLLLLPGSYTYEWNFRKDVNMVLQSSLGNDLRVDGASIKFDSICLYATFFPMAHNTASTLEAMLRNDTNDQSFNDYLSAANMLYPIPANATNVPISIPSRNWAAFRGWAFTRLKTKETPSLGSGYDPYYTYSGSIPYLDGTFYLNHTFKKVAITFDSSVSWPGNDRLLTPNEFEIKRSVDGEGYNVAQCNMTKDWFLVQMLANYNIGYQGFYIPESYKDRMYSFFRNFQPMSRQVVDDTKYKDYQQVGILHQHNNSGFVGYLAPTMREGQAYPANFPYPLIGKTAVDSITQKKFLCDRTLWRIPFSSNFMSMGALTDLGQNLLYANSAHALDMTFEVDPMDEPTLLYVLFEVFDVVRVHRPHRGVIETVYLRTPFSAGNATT

T2: Ad1 hexon, on wild-type human adenovirus type 1 virions (human adenovirus type 1)
T2 chain: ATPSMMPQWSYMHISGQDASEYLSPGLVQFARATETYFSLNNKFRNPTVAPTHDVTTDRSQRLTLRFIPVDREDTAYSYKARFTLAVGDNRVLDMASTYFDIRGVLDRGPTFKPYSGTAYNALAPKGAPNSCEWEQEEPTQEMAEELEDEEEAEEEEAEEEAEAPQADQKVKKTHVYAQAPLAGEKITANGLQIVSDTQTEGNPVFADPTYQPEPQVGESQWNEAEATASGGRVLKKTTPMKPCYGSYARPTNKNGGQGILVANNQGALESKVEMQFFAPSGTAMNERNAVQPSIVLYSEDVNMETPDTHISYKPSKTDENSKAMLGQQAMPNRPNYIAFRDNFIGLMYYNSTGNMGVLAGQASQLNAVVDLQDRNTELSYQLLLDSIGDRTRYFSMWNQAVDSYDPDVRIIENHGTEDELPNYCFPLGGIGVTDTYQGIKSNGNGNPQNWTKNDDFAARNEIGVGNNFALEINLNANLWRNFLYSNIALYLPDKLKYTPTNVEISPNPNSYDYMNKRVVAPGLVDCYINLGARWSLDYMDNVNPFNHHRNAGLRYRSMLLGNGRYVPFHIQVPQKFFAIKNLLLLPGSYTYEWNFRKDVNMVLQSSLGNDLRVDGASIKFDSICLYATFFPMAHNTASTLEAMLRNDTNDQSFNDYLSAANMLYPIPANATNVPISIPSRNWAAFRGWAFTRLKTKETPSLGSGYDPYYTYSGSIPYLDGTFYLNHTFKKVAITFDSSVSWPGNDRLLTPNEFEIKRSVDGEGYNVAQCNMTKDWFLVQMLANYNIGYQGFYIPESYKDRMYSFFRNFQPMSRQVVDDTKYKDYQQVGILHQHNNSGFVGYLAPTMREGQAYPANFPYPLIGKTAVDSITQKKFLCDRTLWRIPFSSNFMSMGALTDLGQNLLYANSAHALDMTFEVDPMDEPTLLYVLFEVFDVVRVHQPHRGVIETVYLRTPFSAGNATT

T3: Ad2 hexon, on wild-type human adenovirus type 2 virions (human adenovirus type 2, UniProt P03277 1-968)
T3 chain: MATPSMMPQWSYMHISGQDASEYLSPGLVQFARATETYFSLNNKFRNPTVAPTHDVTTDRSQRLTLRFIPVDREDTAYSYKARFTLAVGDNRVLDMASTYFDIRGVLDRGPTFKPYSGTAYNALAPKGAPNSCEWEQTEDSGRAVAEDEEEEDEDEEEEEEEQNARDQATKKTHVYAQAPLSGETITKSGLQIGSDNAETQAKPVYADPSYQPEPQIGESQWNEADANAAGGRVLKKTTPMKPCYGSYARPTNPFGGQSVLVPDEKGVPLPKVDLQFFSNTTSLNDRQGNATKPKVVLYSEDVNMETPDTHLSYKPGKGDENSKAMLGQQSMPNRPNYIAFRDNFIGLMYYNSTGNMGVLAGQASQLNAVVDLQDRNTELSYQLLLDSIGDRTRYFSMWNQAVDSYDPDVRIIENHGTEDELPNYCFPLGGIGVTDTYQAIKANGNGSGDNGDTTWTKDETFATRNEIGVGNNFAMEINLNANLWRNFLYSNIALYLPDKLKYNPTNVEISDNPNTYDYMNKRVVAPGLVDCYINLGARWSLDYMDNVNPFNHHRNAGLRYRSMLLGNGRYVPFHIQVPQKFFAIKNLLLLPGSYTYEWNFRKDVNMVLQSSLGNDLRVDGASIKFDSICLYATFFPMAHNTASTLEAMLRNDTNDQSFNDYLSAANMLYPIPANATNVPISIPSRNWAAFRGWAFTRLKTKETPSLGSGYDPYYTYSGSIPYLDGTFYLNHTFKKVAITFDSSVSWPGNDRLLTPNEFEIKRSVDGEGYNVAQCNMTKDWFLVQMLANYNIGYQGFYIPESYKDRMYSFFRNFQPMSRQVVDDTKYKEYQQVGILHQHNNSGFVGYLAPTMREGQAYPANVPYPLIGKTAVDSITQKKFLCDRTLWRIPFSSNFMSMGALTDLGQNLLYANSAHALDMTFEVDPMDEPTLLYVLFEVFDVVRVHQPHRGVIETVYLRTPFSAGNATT

B1: human coagulation factor X (natural protein)
chain 1: ANSFLEEMKKGHLERECMEETCSYEEAREVFEDSDKTNEFWNKYKDGDQCETSPCQNQGKCKDGLGEYTCTCLEGFEGKNCELFTRKLCSLDNGDCDQFCHEEQNSVVCSCARGYTLADNGKACIPTGPYPCGKQTLER
chain 2: SVAQATSSSGEAPDSITWKPYDAADLDPTENPFDLLDFNQTQPERGDNNLTRIVGGQECKDGECPWQALLINEENEGFCGGTILSEFYILTAAHCLYQAKRFKVRVGDRNTEQEEGGEAVHEVEVVIKHNRFTKETYDFDIAVLRLKTPITFRMNVAPACLPERDWAESTLMTQKTGIVSGFGRTHEKGRQSTRLKMLEVPYVDRNSCKLSSSFIITQNMFCAGYDTKQEDACQGDSGGPHVTRFKDTYFVTGIVSWGEGCARKGKYGIYTKVTAFLKWIDRSMKTRGLPKAKSHAPEVITSSPLK
modifications: gamma-carboxylated glutamate residues in the Gla domain
B2: bovine coagulation factor X (natural protein)
chain 1: ANSFLEEVKQGNLERECLEEACSLEEAREVFEDAEQTDEFWSKYKDGDQCEGHPCLNQGHCKDGIGDYTCTCAEGFEGKNCEFSTREICSLDNGGCDQFCREERSEVRCSCAHGYVLGDDSKSCVSTERFPCGKFTQGRS
chain 2: WAIHTSEDALDASELEHYDPADLSPTESSLDLLGLNRTEPSAGEDGSQVVRIVGGRDCAEGECPWQALLVNEENEGFCGGTILNEFYVLTAAHCLHQAKRFTVRVGDRNTEQEEGNEMAHEVEMTVKHSRFVKETYDFDIAVLRLKTPIRFRRNVAPACLPEKDWAEATLMTQKTGIVSGFGRTHEKGRLSSTLKMLEVPYVDRSTCKLSSSFTITPNMFCAGYDTQPEDACQGDSGGPHVTRFKDTYFVTGIVSWGEGCARKGKFGVYTKVSNFLKWIDKIMKARAGAAGSRGHSEAPATWTVPPPLPL
modifications: gamma-carboxylated glutamate residues in the Gla domain
B3: bovine prothrombin (FII) (natural protein)
chain: not shown
modifications: gamma-carboxylated glutamate residues in the Gla domain
B4: Ad6 hexon, on wild-type human adenovirus type 6 virions (natural protein)
chain: ATPSMMPQWSYMHISGQDASEYLSPGLVQFARATETYFSLNNKFRNPTVAPTHDVTTDRSQRLTLRFIPVDREDTAYSYKARFTLAVGDNRVLDMASTYFDIRGVLDRGPTFKPYSGTAYNALAPKGAPNSCEWEQNETAQVDAQELDEEENEANEAQAREQEQAKKTHVYAQAPLSGIKITKEGLQIGTADATVAGAGKEIFADKTFQPEPQVGESQWNEADATAAGGRVLKKTTPMKPCYGSYARPTNSNGGQGVMVEQNGKLESQVEMQFFSTSTNATNEVNNIQPTVVLYSEDVNMETPDTHLSYKPKMGDKNAKVMLGQQAMPNRPNYIAFRDNFIGLMYYNSTGNMGVLAGQASQLNAVVDLQDRNTELSYQLLLDSIGDRTRYFSMWNQAVDSYDPDVRIIENHGTEDELPNYCFPLGGIGITDTFQAVKTTAANGDQGNTTWQKDSTFAERNEIGVGNNFAMEINLNANLWRNFLYSNIALYLPDKLKYNPTNVEISDNPNTYDYMNKRVVAPGLVDCYINLGARWSLDYMDNVNPFNHHRNAGLRYRSMLLGNGRYVPFHIQVPQKFFAIKNLLLLPGSYTYEWNFRKDVNMVLQSSLGNDLRVDGASIKFDSICLYATFFPMAHNTASTLEAMLRNDTNDQSFNDYLSAANMLYPIPANATNVPISIPSRNWAAFRGWAFTRLKTKETPSLGSGYDPYYTYSGSIPYLDGTFYLNHTFKKVAITFDSSVSWPGNDRLLTPNEFEIKRSVDGEGYNVAQCNMTKDWFLVQMLANYNIGYQGFYIPESYKDRMYSFFRNFQPMSRQVVDDTKYKDYQQVGIIHQHNNSGFVGYLAPTMREGQAYPANVPYPLIGKTAVDSITQKKFLCDRTLWRIPFSSNFMSMGALTDLGQNLLYANSAHALDMTFEVDPMDEPTLLYVLFEVFDVVRVHQPHRGVIETVYLRTPFSAGNATT
B5: mouse prothrombin (FII) (natural protein)
chain: not shown
modifications: gamma-carboxylated glutamate residues in the Gla domain

Columns and labels:
Assay in all cases: SPR
[1] = target: T1, Ad5 hexon, on wild-type human …
[2] = target: B4
[3] = target: T2, Ad1 hexon, on wild-type human …
[4] = target: T3, Ad2 hexon, on wild-type human …
[5] = target: human prothrombin (FII) (human, UniProt P00734 44-622, gamma-carboxylated glutamate residues in the Gla domain)

## B1
[1]
  Kd: 0.74 nM
[2]
  Kd: 28 nM
[3]
  Kd: 220 nM

## B2
[4]
  Kd: 73 nM
[2]
  Kd: 100 nM
[3]
  Kd: 160 nM

## B3
[3]
  Kd: 37 nM

## B4
[5]
  Kd: 2.7 nM

## B5
[3]
  Kd: 14 nM
